# Residue numbers refer to the chain shown, from its start.
# Assays:
# Assay in all cases: cleavage_in_vitro
# [1] = tested on: T1, ApoI-HF T77A/T96A (Arthrobacter protophormiae); conditions: NEB4, relative activity 50%
# T1 sequence: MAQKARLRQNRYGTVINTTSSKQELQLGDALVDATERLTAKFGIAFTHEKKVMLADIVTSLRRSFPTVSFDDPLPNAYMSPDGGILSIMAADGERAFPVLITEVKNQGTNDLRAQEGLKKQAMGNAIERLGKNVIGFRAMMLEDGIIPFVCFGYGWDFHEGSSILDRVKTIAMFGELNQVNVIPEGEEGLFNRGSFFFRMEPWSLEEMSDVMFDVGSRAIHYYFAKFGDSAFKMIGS
# [2] = tested on: T2, ApoI-WT (Arthrobacter protophormiae); conditions: NEB4, relative activity 50%
# T2 sequence: T1 sequence with A77T, A96T
# [3] = target: T3, BglII-HF N208A (Bacillus globigii) (UniProt Q45488); conditions: NEB4, relative activity 25%
# T3 sequence: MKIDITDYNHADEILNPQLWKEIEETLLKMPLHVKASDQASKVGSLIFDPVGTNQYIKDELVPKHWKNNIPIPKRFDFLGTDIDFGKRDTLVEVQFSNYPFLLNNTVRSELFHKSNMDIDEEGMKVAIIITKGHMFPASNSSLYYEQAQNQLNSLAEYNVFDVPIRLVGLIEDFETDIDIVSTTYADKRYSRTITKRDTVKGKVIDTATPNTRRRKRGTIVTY
# [4] = tested on: T4, BsaWI-HF Q261A (Bacillus stearothermophilus); conditions: NEB4, relative activity 100%
# T4 sequence: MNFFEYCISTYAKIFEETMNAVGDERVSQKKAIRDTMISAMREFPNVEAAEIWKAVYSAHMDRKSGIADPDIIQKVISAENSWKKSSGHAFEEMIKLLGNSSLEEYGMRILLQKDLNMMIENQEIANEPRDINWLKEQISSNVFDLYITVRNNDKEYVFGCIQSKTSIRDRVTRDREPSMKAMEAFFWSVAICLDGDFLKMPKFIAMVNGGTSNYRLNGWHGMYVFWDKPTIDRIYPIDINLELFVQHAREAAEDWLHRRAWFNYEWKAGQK
# [5] = tested on: T5, BsaWI-WT (Bacillus stearothermophilus); conditions: NEB4, relative activity 100%
# T5 sequence: T4 sequence with A261Q
# [6] = tested on: T6, PmeI-HF E86A (Pseudomonas mendocina); conditions: NEB4, relative activity 100%
# T6 sequence: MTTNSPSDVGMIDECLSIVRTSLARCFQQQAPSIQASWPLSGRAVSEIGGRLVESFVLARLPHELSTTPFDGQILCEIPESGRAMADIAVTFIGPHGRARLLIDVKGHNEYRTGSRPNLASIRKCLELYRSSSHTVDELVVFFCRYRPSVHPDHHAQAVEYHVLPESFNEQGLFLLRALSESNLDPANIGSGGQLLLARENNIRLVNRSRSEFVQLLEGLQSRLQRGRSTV
# [7] = tested on: T7, PvuI-WT (Proteus vulgaris); conditions: NEB4, relative activity 12.5%
# T7 sequence: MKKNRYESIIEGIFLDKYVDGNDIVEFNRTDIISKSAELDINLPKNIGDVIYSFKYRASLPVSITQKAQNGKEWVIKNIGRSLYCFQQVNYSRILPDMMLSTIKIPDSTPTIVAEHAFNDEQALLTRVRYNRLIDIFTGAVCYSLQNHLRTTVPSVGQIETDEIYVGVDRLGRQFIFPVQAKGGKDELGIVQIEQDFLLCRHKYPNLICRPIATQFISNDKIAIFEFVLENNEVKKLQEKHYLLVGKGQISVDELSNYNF
# [8] = target: T8, SmaI-HF F60L/S61R (Serratia marcescens) (UniProt P14229); conditions: NEB4, relative activity 100%
# T8 sequence: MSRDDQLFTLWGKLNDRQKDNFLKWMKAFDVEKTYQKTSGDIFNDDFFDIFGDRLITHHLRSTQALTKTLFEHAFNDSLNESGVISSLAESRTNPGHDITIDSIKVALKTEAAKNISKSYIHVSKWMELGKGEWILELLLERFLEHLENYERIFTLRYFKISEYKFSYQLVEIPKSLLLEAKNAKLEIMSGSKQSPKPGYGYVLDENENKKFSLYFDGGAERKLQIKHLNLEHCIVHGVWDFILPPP
substance,measurement,setting,value
pXba plasmid,activity (fidelity index),[1],> 2000
same,activity (fidelity index),[2],32
same,activity (fidelity index),[3],> 32000
same,activity (fidelity index),[4],> 4000
same,activity (fidelity index),[5],16
same,activity (fidelity index),[6],> 8000
same,activity (fidelity index),[7],32
same,activity (fidelity index),[8],> 256000
